Target: T1, hEndoV (FLJ35220, human endonuclease V) (Homo sapiens, UniProt Q8N8Q3 1-282)
T1 sequence: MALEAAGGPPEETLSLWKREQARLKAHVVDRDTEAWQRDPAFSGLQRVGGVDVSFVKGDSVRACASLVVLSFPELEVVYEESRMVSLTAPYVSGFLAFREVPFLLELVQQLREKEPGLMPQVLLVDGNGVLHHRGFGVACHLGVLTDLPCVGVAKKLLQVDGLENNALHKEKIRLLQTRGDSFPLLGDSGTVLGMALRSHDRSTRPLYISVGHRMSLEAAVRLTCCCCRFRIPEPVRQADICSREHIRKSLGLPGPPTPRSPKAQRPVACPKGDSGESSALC
Assay: EMSA; 5 mM CaCl2; EMSA: 0.2 nM 32P substrate, 10 mM HEPES-KOH pH 8.0, 1 mM DTT, 2% glycerol, 5 mM CaCl2, 4 °C 30 min; nondenaturing 8% PAGE

B1: dsRNA without inosine (dsRNA)
RNA 1: CUGUAUGAUGAAGAUGCUGAC
RNA 2: GUCAGCAUCUUCAUCAUACAG
**Q.** Does B1 bind?
**A.** binds
